The source of these data is paper doi:10.1101/2020.08.10.242008.

The target in this experiment is T1, Full-length wild-type rat TRPV2 (transient receptor potential vanilloid 2) (rat), Q9WUD2.
T1 chain: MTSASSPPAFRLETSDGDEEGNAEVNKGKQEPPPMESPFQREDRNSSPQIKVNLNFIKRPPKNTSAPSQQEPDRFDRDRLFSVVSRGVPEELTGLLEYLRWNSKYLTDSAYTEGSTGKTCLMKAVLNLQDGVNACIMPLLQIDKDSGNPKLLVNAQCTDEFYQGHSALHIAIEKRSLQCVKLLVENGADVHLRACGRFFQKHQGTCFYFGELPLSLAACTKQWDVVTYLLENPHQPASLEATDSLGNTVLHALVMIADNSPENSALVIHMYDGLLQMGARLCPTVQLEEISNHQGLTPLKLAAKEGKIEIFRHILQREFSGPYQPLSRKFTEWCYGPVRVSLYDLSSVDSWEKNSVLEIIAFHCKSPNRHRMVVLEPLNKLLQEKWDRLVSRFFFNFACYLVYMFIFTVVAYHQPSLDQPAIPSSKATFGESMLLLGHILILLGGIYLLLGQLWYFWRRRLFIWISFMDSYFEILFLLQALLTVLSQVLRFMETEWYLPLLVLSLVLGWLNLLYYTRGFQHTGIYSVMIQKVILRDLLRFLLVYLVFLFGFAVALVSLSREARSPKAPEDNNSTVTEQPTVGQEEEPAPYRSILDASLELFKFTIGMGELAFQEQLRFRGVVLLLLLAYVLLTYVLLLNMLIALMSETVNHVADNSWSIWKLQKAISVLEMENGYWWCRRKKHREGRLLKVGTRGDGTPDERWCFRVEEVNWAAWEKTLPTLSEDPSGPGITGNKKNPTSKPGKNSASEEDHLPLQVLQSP
In words: cryo-EM structure. The following applies: remark: other sources report otherwise.

B1: Full-length wild-type rat TRPV2 (transient receptor potential vanilloid 2), Q9WUD2 1-761 (natural protein)
chain: MTSASSPPAFRLETSDGDEEGNAEVNKGKQEPPPMESPFQREDRNSSPQIKVNLNFIKRPPKNTSAPSQQEPDRFDRDRLFSVVSRGVPEELTGLLEYLRWNSKYLTDSAYTEGSTGKTCLMKAVLNLQDGVNACIMPLLQIDKDSGNPKLLVNAQCTDEFYQGHSALHIAIEKRSLQCVKLLVENGADVHLRACGRFFQKHQGTCFYFGELPLSLAACTKQWDVVTYLLENPHQPASLEATDSLGNTVLHALVMIADNSPENSALVIHMYDGLLQMGARLCPTVQLEEISNHQGLTPLKLAAKEGKIEIFRHILQREFSGPYQPLSRKFTEWCYGPVRVSLYDLSSVDSWEKNSVLEIIAFHCKSPNRHRMVVLEPLNKLLQEKWDRLVSRFFFNFACYLVYMFIFTVVAYHQPSLDQPAIPSSKATFGESMLLLGHILILLGGIYLLLGQLWYFWRRRLFIWISFMDSYFEILFLLQALLTVLSQVLRFMETEWYLPLLVLSLVLGWLNLLYYTRGFQHTGIYSVMIQKVILRDLLRFLLVYLVFLFGFAVALVSLSREARSPKAPEDNNSTVTEQPTVGQEEEPAPYRSILDASLELFKFTIGMGELAFQEQLRFRGVVLLLLLAYVLLTYVLLLNMLIALMSETVNHVADNSWSIWKLQKAISVLEMENGYWWCRRKKHREGRLLKVGTRGDGTPDERWCFRVEEVNWAAWEKTLPTLSEDPSGPGITGNKKNPTSKPGKNSASEEDHLPLQVLQSP
By stoichiometry N is commonly meant a count of units in the complex or per binding partner. B1 showed a stoichiometry N of 4.
